Results reported in article PMC5943153 (Molecular microbiology, 2018).

Tests used:
Experiment in all cases: two-hybrid
HP0221-T25 (NifU) = target: T1, HP0221-T25 (NifU) (Helicobacter pylori strain 26695, UniProt O25009 2-326)
T1 sequence (looked up): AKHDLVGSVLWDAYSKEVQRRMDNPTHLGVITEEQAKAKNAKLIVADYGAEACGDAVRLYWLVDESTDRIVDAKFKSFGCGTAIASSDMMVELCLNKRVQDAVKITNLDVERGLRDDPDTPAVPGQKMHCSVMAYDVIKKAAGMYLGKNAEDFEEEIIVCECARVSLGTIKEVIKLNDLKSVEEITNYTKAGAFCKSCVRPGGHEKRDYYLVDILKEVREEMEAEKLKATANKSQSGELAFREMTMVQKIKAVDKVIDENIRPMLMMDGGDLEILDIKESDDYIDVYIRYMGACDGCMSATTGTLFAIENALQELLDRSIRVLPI

T25-HP1492 (Nfu) = target: T2, T25-HP1492 (Nfu) (Helicobacter pylori strain 26695, UniProt O26025 2-89)
T2 sequence (looked up): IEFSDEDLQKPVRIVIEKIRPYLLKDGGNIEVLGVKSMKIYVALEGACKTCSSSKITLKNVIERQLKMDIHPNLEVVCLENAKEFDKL

T25-HP0221 (NifU) = target: T3, T25-HP0221 (NifU) (Helicobacter pylori strain 26695, UniProt O25009 2-326)
T3 sequence (looked up): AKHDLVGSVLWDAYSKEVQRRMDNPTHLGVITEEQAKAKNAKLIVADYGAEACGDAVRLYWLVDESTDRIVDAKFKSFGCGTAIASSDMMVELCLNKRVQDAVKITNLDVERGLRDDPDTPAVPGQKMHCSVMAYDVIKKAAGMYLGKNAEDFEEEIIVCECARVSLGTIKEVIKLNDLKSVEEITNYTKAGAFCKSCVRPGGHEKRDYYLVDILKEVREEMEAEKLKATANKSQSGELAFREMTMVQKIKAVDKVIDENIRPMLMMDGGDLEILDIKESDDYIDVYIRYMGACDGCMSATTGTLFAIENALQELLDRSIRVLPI

| Binder | growth OD595 in M63-maltose (HP0221-T25 (NifU)) | growth OD595 in M63-maltose (T25-HP1492 (Nfu)) | growth OD595 in M63-maltose (T25-HP0221 (NifU)) |
| --- | --- | --- | --- |
| T18-HP0734 (natural protein, Helicobacter pylori strain 26695, UniProt O25434 2-439, looked up) QVKENKQLCLISLGCSKNLVDSEVMLGKLYNYTLTNDAKSADVILINTCGFIESAKQESIQTILNAAKDKKEGAILIASGCLSERYKDEIKELIPEVDIFTGVGDYDKIDIMIAKKQNQFSEQVFLSEHYNARIITGSSVHAYVKISEGCNQKCSFCAIPSFKGKLQSRELDSILKEVENLALKGYTDMTFIAQDSSSFLYDKGQKDGLIQLIRAIDKQQALKSARILYLYPSSTTLELIGAIESSPIFQNYFDMPIQHISDSMLKKMRRNSSQAHHLKLLDAMKQVKESFIRSTIIVGHPEENESEFEELSAFLDEFQFDRLNIFAFSAEENTHAYSLEKVPKKTINARIKALNKIALKHQNHSFKALLNKPIKALVENKEGEYFYKARDLRWAPEVDGEILINDSELTTPLKPGHYTIAPSEFKDNILLAKVLSPF | 0.48 OD595 | 0.12 OD595 | 0.4 OD595 |
| T18-HP1089 (natural protein, Helicobacter pylori strain 26695, UniProt O25721 2-778, looked up) NLEKLFLEKTPLFVFSSTRRLKHFYLEQGEGFLPNAMSMGNFFEQAFYIPNKKKIPNSARLILMIDTIKAIAKEKKSILEGLLLFENSFLGYLESTSFLFDLFDELSSACIKLNELSSKDIYLDYEKHLEVLEMIYDRYIKKLEGLGFYDKIMQEKPAILKEFFEHFSSIEWHLDGFMSVFERQCLLEAAELVPITLHLSCDKYNQKFLEFLNLKLETDCDYSIDFKTQKILSQTPKRQKIEPKLYANSSYLKQSALVLQTIEEYLQKDNDPNKMAIITPNADFLPFLKLLDKNNNLNFAMGLGAKNSPYYTELVKILEDLETSDLDLSGSALLDLENITLALLEQQSSKEKAPLKEAHSQIMHQYHLLKDTLKNYSLKDLLHLYLQEFEANFRLDDSSGGKIRVMDTLETRGMQFDKIVIVDFNETCVPSLKDCDLFLNSALRKSLNLPTLLDKKNLQKHYYYQLFKNSKEITLSYIESETSKASNMLLELNLHIEPIKDAYTLFAPSPLKDYQEEEIKAAIPKDFSFSASSLNAFLTCKRRFYYHYIKRFKESPKDENNSAVGSLLHELLKEAYEKDKTPHALEERLIWLLETRENITPKERLDTLVVLKKIQAFYKKERERFNAEITILDLEKSFETIIQGVIFKGRIDRIDKTADNEIILLDYKFKSDLKLDSMSKTQRGGLSPIEIAQISTDYQMAIYAFALKNLGYKEPIKAFFYDLRKGELLEEEELILQAKMDHLEFSLIPKLKQEIDFEKTLEVKDCEYCSFKDMCNR | 0.29 OD595 | – | 0.26 OD595 |
| T18-HP1428 (natural protein, Helicobacter pylori strain 26695, UniProt O25970 2-357, looked up) KASIYDFTLKELSQLLKPSFRAKQLYLWLYAKYKTSFKDMQNNFSKDFIAYLEREFALRTIEITHVRESVDGSKKYLFKSLRDNHTFEAVLLKMKDKKIDAETNAILEREKYTVCVSCQIGCQVGCSFCFTQKGGFVRNLKASEIIQQALLIKEDNNLPLEKALNIVFMGMGEPLNNLDEVCKAIEIFNTGMQISPKRITISTSGVADKIPILAGKNLGVQLAISLHAVDDKTRSSLMPLNKKYNIECVLNEVRKWPLEQRKRVMFEYLLIKDLNDSLDCAKKLLKLLNGIKSKVNLILFNPHEGSKFERPSLENARMFADFLNSKGLLCTIRESKALDIEAACGQLREKKLSQQI | 0.27 OD595 | 0.08 OD595 | 0.15 OD595 |
| T18-HP0585 (natural protein, Helicobacter pylori strain 26695, UniProt O25307 2-218, looked up) KMGLKRAKTHQKAQQIKELLLKHYPNQTTELRHKNPYELLVATILSAQCTDARVNQITPKLFEKYPSVNDLALASLEEVKEIIKSVSYFNNKSKHLISMAQKVVRDFKGVIPSTQKELMSLDGVGQKTANVVLSVCFDANCIAVDTHVFRATHRLGLSNAKDPIKTEEELSDLFKDNLSKLHHALILFGRYTCKAKNPLCGACFLKEFCVSKASFKA | 0.15 OD595 | 0.06 OD595 | 0.21 OD595 |
| T18-HP0132 (natural protein, Helicobacter pylori strain 26695, UniProt P56072 2-455, looked up) ASFSILSIFKIGVGPSSSHTIGPMEAGARFCESLKGILEQVVRVQITLHGSLALTGKGHLSDEAVLIGLHGIYANELEVTTKKALLHEALENKVLKLANQHHIPFDYAKDLIFDNKPLTRHQNALILKAFNSKNEVLKEETYYSVGGGFVYTEKELDNLSEEDGNESIAYDFSSAKELLELCQKHQKSIAEIVRLRENALKNHPDATMVKIYHAMLECYDNGANSKERYLPGSLKVTRLAPSIKTRLEKHPTSGKDPLALIDYISLYARAIAEENASGGKVVTAPTNGACAVVPSVLLYAKNHLFENLSQKAINDFLLTSAAIGYLYKKNASLSGAEAGCQAEIGVASSMAAGGLAHLCQATTQQVLIASEIAMEHHLGLTCDPVGGLVQIPCIERNVLGAIKAISASKLALEDEYKPKVSLDEVIATMYATGKDMNEKYKETSLGGLAKTLKC | 0.14 OD595 | 0.27 OD595 | 0.21 OD595 |
| T18-HP1540 (natural protein, Helicobacter pylori strain 26695, UniProt O26065 2-167, looked up) ADIQRRDFLGMSLASVTAIGAIASLVAMKKTWDPLPSVVSAGFTTIDVANMQEGQFSTVEWRGKPVYILKRSKKEGFNEKRDFKVGESVFTTAIQICTHLGCIPTYQDEEKGFLCPCHGGRFTSDGVNIAGTPPPRPFDIPPFKIEGTKITFGEAGAEYKKMMAKA | 0.44 OD595 | 0.17 OD595 | 0.24 OD595 |
| T18-HP0666 (natural protein, Helicobacter pylori strain 26695, UniProt O25377 2-433, looked up) NENINENIFEEVGDACVKCAKCVPGCTIYRIHKDEATSPRGFLDLMRLNAQNKLQLDTNLKHLLETCFLCTACVEICPFHLPIDTLIEKAREKIAQKHGIAWYKKSYFSLLKNRKKMDRVFSTAHFLAPCVFKQVGDSLEPRAVFKGLFKRFKKSALPPLNQKSFLQKHAEMKLLENPIQKVAIFIGCLSNYHYQQVGESLLYILEKLNIQAIIPKQECCSAPAYFTGDKDTTLFLVKKNIEWFESYLDKVDAIIVPEATCASMLINDYYKVFLGEKDKDLYVKRLEKITPKIYLASVFLEKHTPLKSLLEKIPKGKKETITYHNPCHAKKTLNAHKEVRNLLNLHYEIKEMPDNCCGFGGITMQTQKAGFSLKVGLLRAKEIIDTKAAILSAECGACHMQLNNALKSLDDPNTPPFLHPLELIAKALKSAE | 0.11 OD595 | – | 0.48 OD595 |
| T18-HP0568 (natural protein, Helicobacter pylori strain 26695, UniProt O25292 2-255, looked up) PLELFEKVCKEVAPLTQMITLHVLGDPCKLKNLNHYLSTARRFSLKVDLVTSGVYLHDFETLLQDVIYQISISLDAGLDHRNKLNQHRYIQKILEFCRYKCEKNSEVFLNLRIQDSTLDKHQNLIKPFLESFECVSLEGLKTQGRARLFKKSFLNIQKTFKWPSLNAQNPLNQKSKIPYCYGLIKQIAILSNGVVVPCCMDTQANISLGDLNHTPLKDVLKSQKAMAIKTHFLKGEALELLCQNCSYPLIRYKK | 0.36 OD595 | 0.14 OD595 | 0.13 OD595 |
| T18-HP1268 (natural protein, Helicobacter pylori strain 26695, UniProt O25858 2-220, looked up) AKQEYKQLPKRAEVHSATEQFKDTVKTSLGLDLFKGLGLTIKEFFSPSVTIHYPMEQLPLSPRYRAVHNLQRLLDSGSERCIGCGLCEKICTSNCIRIITHKGEDNRKKIDSYTINLGRCIYCGLCAEVCPELAIVMGNRFENASTQRSQYGSKSEFLTSEQDAKNCSHAEFLGFGAVSPNYNERMQATPLDYVQEPSKEESQEETPTNPESNKGDENV | 0.22 OD595 | 0.18 OD595 | 0.33 OD595 |
